Experimental data published in article PMC2736567.

Molecular target: endogenous GRB2 (human (endogenous in HEK-293T)) (UniProt P62993)
Sequence of UniProt P62993 (P62993 whole entry): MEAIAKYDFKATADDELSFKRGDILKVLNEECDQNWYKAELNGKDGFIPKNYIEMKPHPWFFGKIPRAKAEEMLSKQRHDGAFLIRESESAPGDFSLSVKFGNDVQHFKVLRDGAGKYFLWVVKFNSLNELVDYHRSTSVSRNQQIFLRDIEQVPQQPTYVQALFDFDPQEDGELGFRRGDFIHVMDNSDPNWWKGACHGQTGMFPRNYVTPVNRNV

Work on “GST-tagged hPIV3-C (full-length) (from UniProt P06165 1-199) (natural protein)” yielded an Elk1 trans-reporter after EGF in HEK-293T expressing hPIV3-C without a tag of 14 fold.
